Holding throughout (assay type): biochemical
In one assay the target is JAK1 (Homo sapiens, UniProt P23458). The assay is described as follows: TR-FRET kinase assay, JAK1. The conditions noted are these: Kinase Concentration 7 nM; 50 nM ULight-labeled substrate, 200 micromolar ATP, 2 hours. On the procedure: (§1) TR-FRET kinase assays are performed under standardized conditions: various individual kinases are incubated with 50 nM of kinase substrate BRB1 labeled with the TR-FRET acceptor dye ULight (PerkinElmer) and 200 micromolar ATP in 10 μL of kinase assay buffer (50 mM HEPES pH7.5, 10 mM MgCl2, 3 mM MnCl2, 1 mM EGTA, 2 mM DTT and 0.01% Tween-20) for 2 hours at room temperature. Reactions are stopped with EDTA, and anti-phospho-tyrosine antibodies (clone PT66) labeled with the TR-FRET europium chelate donor dye are added to a final concentration of 2 nM in a final volume of 20 μL. The TR-FRET signal emitted at 665 nm is read one hour after the addition of antibodies using a TR-FRET plate reader such as the Envision® Multilabel Plate reader (PerkinElmer). The emitted signal at 665 nm is proportional to the extent of peptide phosphorylation, Control reactions indicative of background are performed excluding ATP from the reaction.
(§2) Assay conditions are identical to those used described for FIG. 1.

Another assay addresses T1, TNK1 (Homo sapiens, UniProt Q13470).
T1 sequence (Q13470 1-666): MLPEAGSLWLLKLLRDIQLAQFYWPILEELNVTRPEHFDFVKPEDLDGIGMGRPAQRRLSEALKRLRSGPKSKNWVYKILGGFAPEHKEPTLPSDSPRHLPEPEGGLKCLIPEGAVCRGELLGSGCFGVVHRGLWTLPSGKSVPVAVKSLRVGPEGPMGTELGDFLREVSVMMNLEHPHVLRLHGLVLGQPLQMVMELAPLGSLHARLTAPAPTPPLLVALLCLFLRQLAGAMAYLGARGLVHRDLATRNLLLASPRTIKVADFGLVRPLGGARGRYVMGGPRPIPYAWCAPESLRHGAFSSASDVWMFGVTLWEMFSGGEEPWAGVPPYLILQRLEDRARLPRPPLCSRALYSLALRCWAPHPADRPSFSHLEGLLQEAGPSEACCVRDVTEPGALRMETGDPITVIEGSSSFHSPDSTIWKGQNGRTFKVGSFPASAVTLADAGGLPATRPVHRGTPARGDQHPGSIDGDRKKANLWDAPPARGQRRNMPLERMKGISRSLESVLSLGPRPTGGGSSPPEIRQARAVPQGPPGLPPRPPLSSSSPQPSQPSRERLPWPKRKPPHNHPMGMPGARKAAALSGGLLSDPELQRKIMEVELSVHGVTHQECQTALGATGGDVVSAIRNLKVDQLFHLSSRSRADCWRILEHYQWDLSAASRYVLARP
Kind of assay: TR-FRET kinase assay, TNK1. The conditions noted are these: Kinase Concentration 1 nM; 50 nM ULight-labeled substrate, 200 micromolar ATP, 2 hours. The procedure: as §1, §2
A general note: TR-FRET usually uses a lanthanide donor and a delayed reading to cut background.

The next assay has as its target IGF1R (Homo sapiens, UniProt P08069). The assay is described as follows: TR-FRET kinase assay, IGF1R. The conditions noted are these: Kinase Concentration 0.25 nM; 50 nM ULight-labeled substrate, 200 micromolar ATP, 2 hours. On the procedure:
as §1, §2

The next assay has as its target SRC (Homo sapiens, UniProt P12931). Kind of assay: TR-FRET kinase assay, SRC. Conditions: Kinase Concentration 0.5 nM; 50 nM ULight-labeled substrate, 200 micromolar ATP, 2 hours. On the procedure: as §1, §2
The target of a further assay is T2, EphA1 (Homo sapiens, UniProt P21709).
T2 sequence (P21709 26-976): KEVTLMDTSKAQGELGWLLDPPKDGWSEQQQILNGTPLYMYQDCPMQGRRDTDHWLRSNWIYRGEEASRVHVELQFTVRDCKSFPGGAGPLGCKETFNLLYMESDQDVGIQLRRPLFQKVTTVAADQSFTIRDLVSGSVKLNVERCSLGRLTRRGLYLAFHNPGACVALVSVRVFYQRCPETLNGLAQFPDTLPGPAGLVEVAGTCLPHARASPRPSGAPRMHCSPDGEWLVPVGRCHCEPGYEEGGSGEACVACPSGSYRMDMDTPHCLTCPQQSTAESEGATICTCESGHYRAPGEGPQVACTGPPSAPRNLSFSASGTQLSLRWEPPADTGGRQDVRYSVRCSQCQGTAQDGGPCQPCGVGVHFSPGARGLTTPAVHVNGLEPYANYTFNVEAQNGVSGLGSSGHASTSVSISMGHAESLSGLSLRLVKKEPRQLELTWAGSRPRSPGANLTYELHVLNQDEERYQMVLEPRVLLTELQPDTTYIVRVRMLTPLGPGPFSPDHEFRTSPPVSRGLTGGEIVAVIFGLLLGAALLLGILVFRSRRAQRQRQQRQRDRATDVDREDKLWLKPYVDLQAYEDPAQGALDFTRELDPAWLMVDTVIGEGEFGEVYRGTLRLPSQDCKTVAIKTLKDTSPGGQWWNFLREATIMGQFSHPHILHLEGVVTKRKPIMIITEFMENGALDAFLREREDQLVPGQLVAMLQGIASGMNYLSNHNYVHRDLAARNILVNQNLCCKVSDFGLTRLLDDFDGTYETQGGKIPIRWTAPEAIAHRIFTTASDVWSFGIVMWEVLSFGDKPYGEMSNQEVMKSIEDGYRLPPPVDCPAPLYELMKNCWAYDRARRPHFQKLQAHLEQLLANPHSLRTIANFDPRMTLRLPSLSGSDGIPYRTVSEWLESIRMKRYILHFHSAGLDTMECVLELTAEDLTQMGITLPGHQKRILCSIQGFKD
Kind of assay: TR-FRET kinase assay, EphA1. Conditions: Kinase Concentration 0.5 nM; 50 nM ULight-labeled substrate, 200 micromolar ATP, 2 hours. On the procedure:
as §1, §2

Chain of JAK1 (P23458 whole entry, species assumed): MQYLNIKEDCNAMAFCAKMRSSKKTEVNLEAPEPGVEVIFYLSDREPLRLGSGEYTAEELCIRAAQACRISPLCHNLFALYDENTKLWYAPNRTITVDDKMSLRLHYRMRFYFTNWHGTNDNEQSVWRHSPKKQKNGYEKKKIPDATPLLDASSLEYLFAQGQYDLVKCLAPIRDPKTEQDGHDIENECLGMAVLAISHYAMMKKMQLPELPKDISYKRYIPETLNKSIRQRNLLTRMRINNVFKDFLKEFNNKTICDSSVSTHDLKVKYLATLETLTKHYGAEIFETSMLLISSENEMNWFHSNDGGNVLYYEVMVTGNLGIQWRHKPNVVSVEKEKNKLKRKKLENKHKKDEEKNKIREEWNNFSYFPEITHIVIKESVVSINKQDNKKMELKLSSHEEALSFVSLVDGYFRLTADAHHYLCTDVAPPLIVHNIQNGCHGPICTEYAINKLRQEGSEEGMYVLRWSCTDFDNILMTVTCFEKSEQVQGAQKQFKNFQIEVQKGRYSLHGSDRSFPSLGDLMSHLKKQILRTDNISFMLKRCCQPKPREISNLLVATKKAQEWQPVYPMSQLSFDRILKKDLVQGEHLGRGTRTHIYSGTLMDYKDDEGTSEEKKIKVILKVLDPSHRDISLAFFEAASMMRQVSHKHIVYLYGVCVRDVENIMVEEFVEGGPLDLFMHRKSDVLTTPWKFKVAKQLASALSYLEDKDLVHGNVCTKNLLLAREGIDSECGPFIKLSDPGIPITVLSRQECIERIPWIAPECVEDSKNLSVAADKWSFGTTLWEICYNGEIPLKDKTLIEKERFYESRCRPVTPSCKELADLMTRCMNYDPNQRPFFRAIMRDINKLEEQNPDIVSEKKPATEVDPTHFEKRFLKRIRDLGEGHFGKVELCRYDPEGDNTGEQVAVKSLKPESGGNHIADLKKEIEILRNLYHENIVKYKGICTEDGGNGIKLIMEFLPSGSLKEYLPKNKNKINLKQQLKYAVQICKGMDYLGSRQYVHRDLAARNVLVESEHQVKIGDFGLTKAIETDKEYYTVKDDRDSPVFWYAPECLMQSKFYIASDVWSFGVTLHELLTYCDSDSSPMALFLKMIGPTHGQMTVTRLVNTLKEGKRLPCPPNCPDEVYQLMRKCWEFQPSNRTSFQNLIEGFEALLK

With “C AYE AYE AYE K EYA EYA EYA K AYA EYE R (CAYEAYEAYEKEYAEYAEYAKAYAEYER; tyrosine kinase substrate peptide) [BRB1]”, the “Signal to Noise ratio with BRB1 Peptide” value with JAK1 was 13.7; with TNK1, 6.8; with IGF1R, 25.1; with SRC, 31.7; in the assay with EphA1, 10.8.

Values taken from patent US8242083B2, “Kinase substrates” (PerkinElmer Health Sciences, Inc., priority 2008, dated 2012).
